This is an account of results in patent publication US20220315926.

Data set [1] deals with T1, DEN2-NS1 (Thailand/16681/84) (Dengue virus 2) (UniProt P29990).
T1 sequence: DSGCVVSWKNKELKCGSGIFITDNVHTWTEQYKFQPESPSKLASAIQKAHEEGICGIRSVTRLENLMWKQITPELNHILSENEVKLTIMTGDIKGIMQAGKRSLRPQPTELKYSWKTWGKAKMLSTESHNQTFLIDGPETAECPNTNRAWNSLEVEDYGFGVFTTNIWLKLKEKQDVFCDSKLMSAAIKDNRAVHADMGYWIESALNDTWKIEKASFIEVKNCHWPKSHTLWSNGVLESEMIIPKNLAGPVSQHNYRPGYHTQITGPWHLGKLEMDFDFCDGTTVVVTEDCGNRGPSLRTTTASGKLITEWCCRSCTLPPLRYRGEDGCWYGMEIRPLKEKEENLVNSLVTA
Kind of data set: EMSA. Background: In EMSA bound probe runs differently from free probe, usually more slowly.

Data set [2] has as its target T2, DEN4-NS1 (Dominica/814669/1981) (Dengue virus 4) (UniProt P09866).
T2 sequence: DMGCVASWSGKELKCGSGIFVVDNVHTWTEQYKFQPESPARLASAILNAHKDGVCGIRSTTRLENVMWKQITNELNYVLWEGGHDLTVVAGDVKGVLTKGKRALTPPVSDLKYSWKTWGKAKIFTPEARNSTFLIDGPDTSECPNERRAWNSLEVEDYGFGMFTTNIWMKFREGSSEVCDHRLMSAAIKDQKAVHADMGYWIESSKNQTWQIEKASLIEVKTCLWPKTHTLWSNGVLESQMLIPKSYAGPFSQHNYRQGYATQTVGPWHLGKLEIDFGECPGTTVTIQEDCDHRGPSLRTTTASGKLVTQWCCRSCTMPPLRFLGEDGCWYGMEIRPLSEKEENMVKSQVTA
In words: SPR. For orientation: In SPR one partner is held on a chip, and binding of the other changes the refractive index at the surface.

In data set [3] the target is T3, DEN1-NS1 (Nauru/Western Pacific/1974) (Dengue virus 1) (UniProt P17763).
T3 sequence: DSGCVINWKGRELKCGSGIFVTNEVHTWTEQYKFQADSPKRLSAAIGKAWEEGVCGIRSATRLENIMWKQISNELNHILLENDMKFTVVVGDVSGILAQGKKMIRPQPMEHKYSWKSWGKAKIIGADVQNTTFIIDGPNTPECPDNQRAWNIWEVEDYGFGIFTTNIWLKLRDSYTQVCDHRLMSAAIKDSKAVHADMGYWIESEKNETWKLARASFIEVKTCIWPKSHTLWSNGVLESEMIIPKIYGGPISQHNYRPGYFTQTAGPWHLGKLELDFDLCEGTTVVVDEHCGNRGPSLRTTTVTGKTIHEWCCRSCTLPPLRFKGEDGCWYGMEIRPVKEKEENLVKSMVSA
In words: SPR. The settings on record: Ds unnatural base at both n; biotin-dT in 3' mini-hairpin CGCG(L)AGCG.

For data set [4], the target named is T2, DEN4-NS1 (Dominica/814669/1981) (Dengue virus 4). Kind of data set: EMSA. As to conditions: Ds at both x; 5' biotin-dT; 2 M urea gel.
Data set [5] has as its target SIN DEN1-NS1 (Singaporean variant, 96.3% homology) (Dengue virus 1) (UniProt P33478). In words: SPR. As to conditions: Ds at both x, 25 C, 150 mM NaCl, 1 mM MgCl2.
In data set [6] the target is T1, DEN2-NS1 (Thailand/16681/84) (Dengue virus 2). In words: SPR.
Data set [7] has as its target T4, DEN3-NS1 (Sri Lanka D3/H/IMTSSA-SRI/2000/1266) (Dengue virus 3) (UniProt Q6YMS4).
T4 sequence: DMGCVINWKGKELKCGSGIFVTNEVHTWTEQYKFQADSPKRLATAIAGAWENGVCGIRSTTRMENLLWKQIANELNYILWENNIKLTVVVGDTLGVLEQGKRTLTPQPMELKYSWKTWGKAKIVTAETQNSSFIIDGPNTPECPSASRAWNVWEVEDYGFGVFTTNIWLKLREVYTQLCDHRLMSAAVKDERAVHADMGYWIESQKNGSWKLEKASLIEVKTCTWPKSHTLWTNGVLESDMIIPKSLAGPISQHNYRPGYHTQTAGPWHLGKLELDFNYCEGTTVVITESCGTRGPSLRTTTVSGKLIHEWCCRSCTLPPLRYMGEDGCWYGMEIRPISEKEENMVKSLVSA
Kind of data set: SPR. The settings on record: Ds at both n; biotin-dT in 3' mini-hairpin.

[8] abbreviates: two Ds and one diol-Pa, biotin-dT in 3' mini-hairpin.
Setting [9] is: Ds at both n, biotin-dT in 3' mini-hairpin.

Like-named read-outs stand apart in the source and are kept apart here. A value given as a limit tells only on which side of the number the result lay.

On to “GGCTGGTCCGNCTGGGAACAAGNGGCGGGAGGGANGGGTGTGGGTGCGACAAGCGGACCAGCCCGCGTAGCG [D2-1d-72h-c]”, for which the binding signal in data set [1] (Ds at 11, diol-Pa at 35, biotin-dT in 3' mini-hairpin) is < 10 % shifted.

Regarding “GGCTGGTCCGNCTGGGAACAAGNGGCGGGAGGGANGGGTGTGGGTGCGACAAGCGGACCAGCCCGCGTAGCG [D2-1d-72h-d]”, the binding signal in data set [1] (Ds at 11 and 23, biotin-dT in 3' mini-hairpin) was < 10 % shifted.

As for “TGATATGGTCTACTGTGGCGCGAGGGAATCNACGCNTATCAAATANAAACAGCTAATGACAAGCGGAGTAGTTAGACC [D4-3-78]”, in data set [2] (Ds at x (three), 5' biotin-dT), the Kd (as a rule, the concentration at which binding is half-saturated) came to 0.034 nM. In other words, the picomolar range. As to “GGCTGGTCCGACTGGGAACAAGNGGCGGGAGGGANGGGTGTGGGTGCGACAAGCGGACCAGCCCGCGTAGCG [D2-1d-72h(A) (D2-1d-72h-b)]”, the binding signal in data set [1] (Ds at position 23, diol-Pa at position 35, biotin-dT in 3' mini-hairpin) was > 40 % shifted.

In data set [3], “CCCCAGACGGACTGGTGTNCTCGGNATGGCCGTCTGGGGCGCGTAGCG [D1-1-48h (AptD1)]” had a Kd of 0.182 nM. Take “TGATATGGTCTACTGTCACANATCGCCGTAAAGNCGAAGAGCTGCGGAATCTAAGGTGACAAGCGGAGTAGTTAGACC [D4-2-78]”: the binding signal in data set [4] is > 60 % shifted. With “GCACTCCATGATATGGTCTACTGAGCGAGACGATGCTGCTAAANTACGCCGTGGTNACGAAGACAGACAAGCGGAGTGTCGCGTAGCG [19D1F1-3]”, the Kd in data set [5] (biotin-dT in 3' mini-hairpin) amounted to 0.027 nM. As for “GGCTGGTCCGNCTGGGAACAAGNGGCGGGAGGGANGGGTGTGGGTGCGACAAGCGGACCAGCCCGCGTAGCG [D2-1d-72h (AptD2)]”, the Kd in data set [6] (Ds at positions 11 and 23, diol-Pa at position 35, biotin-dT in 3' mini-hairpin) was found to be 0.104 nM. Turning to “TTTTCGCACTCCATGATATGGTCTACTGGTCCGNCTGGGAACAAGNGGCGGGAGGGANGGGTGTGGGTGCGACAAGCGGAGTAGTTAGACCGTCAAA [D2-1-96(3Ds)]”, the binding signal in data set [1] (three Ds) is < 10 % shifted. Sequence “TTTTCGCACTCCATGATATGGTCTACTGGTCCGNCTGGGAACAAGNGGCGGGAGGGANGGGTGTGGGTGCGACAAGCGGAGTAGTTAGACCGTCAAA [D2-1y-96]” registered a Kd in data set [6] (two Ds and one diol-Px, 5' biotin) of 0.041 nM. As for “GGTCCGNCTGGGAACAAGNGGCGGGAGGGANGGGTGTGGGTGCGACAAGCGGCGCGTAGCG [D2-1d-61h]”, the binding signal in data set [1] (setting [8]) is > 60 % shifted.

Turning to “GACGGTCTACTGGTCCGNCTGGGAACAAGNGGCGGGAGGGANGGGTGTGGGTGCGACAAGCGGAGTAGTTAGACCGTCCGCGTAGCG [D2-1d-87h]”, the Kd in data set [6] (setting [8]) is 0.105 nM.

Regarding “GGCTGGTCCGNCTGGGAACAAGNGGCGGGAGGGANGGGTGTGGGTGCGACAAGCGGACCAGCCCGCGTAGCG [AptD2e (Cont-D2, natural-base variant)]”, in data set [1], the binding signal is < 10 % shifted. In data set [2] (Ds at both x, 5' biotin-dT), “TGATATGGTCTACTGTCTCAACGGTTGTCAAACGGNTATCACGGCNACACACCTGCGGACAAGCGGAGTAGTTAGACC [D4-1-78]” registered a Kd of 0.062 nM.

“TGATATGGTCTACTGTATAATCCGCNTTCGTCATGTGGNTTGGATCTGGGTCTGGCAGACAAGCGGAGTAGTTAGACC [D4-4-78]”: the binding signal in data set [4] was > 60 % shifted. The sequence “TTTTCGCACTCCATGATATGGTCTACTGAGCGAGACGATGCTGCTAAANTACGCCGTGGTNACGAAGACAGACAAGCGGAGTAGTTAGACCGTGAAA [19D1F1 (isolate, AptD1b)]” gave a Kd in data set [5] (5' biotin) of 0.0091 nM. Sequence “CGGCGGAGACGTAACGCNTATCAAATCNAAACAGCTTAGGGTCCGCCGCGCGTAGCG [D4-3-57h (AptD4)]” had a Kd in data set [2] (setting [9]) of 0.03 nM. In data set [7], “CCGCTTGTCATCTANCCTGGCCNTGTGGTACTGTAACGGCTGACAAGCGGCGCGTAGCG [D3-2-59h (AptD3)]” yielded a dissociation constant (Kd) of 0.057 nM.

As to “CTCCGCTGTCAAACGGNTATCACGGCNACACACCTGCGGACAGCGGAGCGCGTAGCG [D4-1-57h]”, the Kd in data set [2] (setting [9]) was found to be 0.029 nM.
